Test results as given in paper PMC3589453, “Structural Characterization of the Self-Association of the Death Domain of p75^NTR” (PLoS ONE, 2013).

What was measured:
[1] = target: p75DD-Fusion (chimera of the p75NTR death domain and a p75-interacting peptide from NRIF) (rat | not stated) (UniProt P07174); assay: SEC; purified p75NTR constructs and their mutants on a Superdex 75 column; monomer and dimer peaks; some runs with beta-ME or DTNB
[2] = target: p75CTD symmetric dimer (dimer of the C416S mutant of p75CTD) (rat) (UniProt P07174); assay: SPR; Biacore 3000, 25 °C; p75CTD monomer and dimer coupled onto a CM-5 chip at equal molarities; NRIF peptide flowed over; 50 mM Hepes-KOH pH 7.5, 100 mM KCl, 5% glycerol, 0.005% Tween-20
[3] = target: the molecule itself; assay: SEC; purified p75NTR constructs and their mutants on a Superdex 75 column; monomer and dimer peaks; some runs with beta-ME or DTNB
[4] = target: the molecule itself; assay: crystal structure; p75DD modified with DTNB; sitting drop, 4 °C, 0.1 M Bis-Tris propane pH 7.0, 1.2 M sodium citrate; asymmetric dimer in the crystal lattice
[5] = target: T1, p75CTD monomer (p75CTD C379S/C416S) (rat, UniProt P07174 334-425, C379S | C416S, biotinylated for the BLI assay); assay: SPR; Biacore 3000, 25 °C; p75CTD monomer and dimer coupled onto a CM-5 chip at equal molarities; NRIF peptide flowed over; 50 mM Hepes-KOH pH 7.5, 100 mM KCl, 5% glycerol, 0.005% Tween-20; conditions: both partners purified
T1 construct: p75NTR, rat, residues 334-425; Mutant of m3; the tag is that of the parent construct; Biotinylated for BLI, coupled onto a CM-5 chip for SPR; also called double cysteine residue mutant
T1 sequence (looked up): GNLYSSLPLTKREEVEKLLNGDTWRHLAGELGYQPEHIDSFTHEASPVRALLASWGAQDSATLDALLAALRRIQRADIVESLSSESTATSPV

[6] = target: the molecule itself; assay: immunoprecipitation and non-reducing SDS-PAGE immunoblot; HA-p75NTR in transfected HEK 293T cells without ligand; lysate in 40 mM Tris pH 7.6, 150 mM NaCl, 0.5% NP-40, 10% glycerol; anti-HA immunoprecipitates boiled with or without DTT, blotted with anti-HA
[7] = target: T2, p75CTD monomer (p75CTD C379S/C416S) (rat, UniProt P07174 334-425, C379S | C416S, biotinylated for the BLI assay); assay: BLI
T2 sequence: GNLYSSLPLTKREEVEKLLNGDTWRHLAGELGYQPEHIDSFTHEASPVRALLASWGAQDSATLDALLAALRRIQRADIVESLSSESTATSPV

[8] = target: T1, p75CTD monomer (p75CTD C379S/C416S); assay: BLI; Octet (ForteBio); biotinylated p75CTD proteins loaded on Streptavidin High Binding FA biosensors; RIP2 CARD in solution at 5 µM, then 20, 10, 5 and 2 µM for the monomer; 50 mM Hepes-NaOH pH 7.5, 100 mM NaCl, 5% glycerol, 1 mM EDTA; conditions: both partners purified

p75DD-Fusion (chimera of the p75NTR death domain and a p75-interacting peptide from NRIF) (from UniProt P07174 334-418)
stoichiometry N [1]: 2

NRIF peptide (residues 552-577), chemically synthesized
Kd [2]: 10 µM

B1: p75CTD C416S (domain or fragment, rat, UniProt P07174 334-425, looked up)
chain: GNLYSSLPLTKREEVEKLLNGDTWRHLAGELGYQPEHIDSFTHEACPVRALLASWGAQDSATLDALLAALRRIQRADIVESLSSESTATSPV
notes: p75NTR, rat, residues 334-425; Mutant of m3, the single chain for its self-association; the isolated dimer is m12; also called C416S mutant of p75CTD
stoichiometry N [3]: 2

B2: p75CTD (rat p75NTR residues 334-425) (domain or fragment, UniProt P07174 334-425, looked up)
chain: GNLYSSLPLTKREEVEKLLNGDTWRHLAGELGYQPEHIDSFTHEACPVRALLASWGAQDSATLDALLAALRRIQRADIVESLCSESTATSPV
notes: p75NTR, rat, death domain and C-terminal tail, residues 334-425; pET24a vector; source: E. coli BL21, purified (Ni-NTA, size-exclusion chromatography)
stoichiometry N [3]: 2

B3: p75DD (rat p75NTR death domain, residues 334-418) (domain or fragment, UniProt P07174 334-418, looked up)
chain: GNLYSSLPLTKREEVEKLLNGDTWRHLAGELGYQPEHIDSFTHEACPVRALLASWGAQDSATLDALLAALRRIQRADIVESLCSE
notes: p75NTR (neurotrophin receptor p75), rat, death domain, residues 334-418; pET24a vector; Not treated with DTNB in the solution experiments (the DTNB-treated crystal form is m2); also called His6-tagged p75DD; source: E. coli BL21, purified (Ni-NTA, size-exclusion chromatography); also co-expressed in E. coli with GST-tagged NRIF loop region (521-661); not shown: His6, C-terminal, kept
stoichiometry N [3]: 2

B4: p75DD modified with DTNB (as crystallised) (domain or fragment, rat, UniProt P07174 334-418, looked up)
chain: GNLYSSLPLTKREEVEKLLNGDTWRHLAGELGYQPEHIDSFTHEACPVRALLASWGAQDSATLDALLAALRRIQRADIVESLCSE
modifications: Cys379 and Cys416 modified by DTNB (MNB group)
notes: p75NTR, rat, death domain, residues 334-418 (334-417 traced in the structure); Same construct as m1 after treatment with DTNB at a 5:1 molar ratio; also called DTNB-modified p75DD; source: E. coli BL21, purified (Ni-NTA, size-exclusion chromatography), then modified with DTNB
binding result [4]: binds

MESGAGRASDNSLLTHALPVKSHQKG [NRIF peptide (residues 552-577), chemically synthesized]
Kd [5]: ~10 µM

B5: full-length rat p75NTR with N-terminal HA tag (receptor, UniProt P07174 30-425, looked up)
chain: KETCSTGLYTHSGECCKACNLGEGVAQPCGANQTVCEPCLDNVTFSDVVSATEPCKPCTECLGLQSMSAPCVEADDAVCRCAYGYYQDEETGHCEACSVCEVGSGLVFSCQDKQNTVCEECPEGTYSDEANHVDPCLPCTVCEDTERQLRECTPWADAECEEIPGRWIPRSTPPEGSDSTAPSTQEPEVPPEQDLVPSTVADMVTTVMGSSQPVVTRGTTDNLIPVYCSILAAVVVGLVAYIAFKRWNSCKQNKQGANSRPVNQTPPPEGEKLHSDSGISVDSQSLHDQQTHTQTASGQALKGDGNLYSSLPLTKREEVEKLLNGDTWRHLAGELGYQPEHIDSFTHEACPVRALLASWGAQDSATLDALLAALRRIQRADIVESLCSESTATSPV
notes: p75NTR, rat, full length; pCDNA3 construct, a gift; also called wildtype; full-length p75NTR; source: HEK 293T, transiently transfected, in lysate; not shown: HA, N-terminal, kept
stoichiometry N [6]: 2

B6: p75ICD (rat p75NTR intracellular region, residues 280-425) (domain or fragment, UniProt P07174 280-425, looked up)
chain: KQNKQGANSRPVNQTPPPEGEKLHSDSGISVDSQSLHDQQTHTQTASGQALKGDGNLYSSLPLTKREEVEKLLNGDTWRHLAGELGYQPEHIDSFTHEACPVRALLASWGAQDSATLDALLAALRRIQRADIVESLCSESTATSPV
notes: p75NTR, rat, intracellular region, residues 280-425; pET24a vector; source: E. coli BL21, purified (Ni-NTA, size-exclusion chromatography)
stoichiometry N [3]: 2

B7: Human RIP2 CARD domain (residues 438-524) (domain or fragment, UniProt O43353 438-524, looked up)
chain: QWIQSKREDIVNQMTEACLNQSLDALLSRDLIMKEDYELVSTKPTRTSKVRQLLDTTDIQGEEFAKVIVQKLKDNKQMGLQPYPEIL
notes: pET24a vector; also called CARD protein; source: E. coli, purified (similar to p75DD)
Kd [7]: 0.24 µM
fold stronger than the NRIF peptide on p75CTD (KD about 10^-5 M) [8]: ~100 fold
